Measured values taken from the Human Domainome abundance scans (Beltran et al. 2025).

B1: Homeobox protein cut-like 1, residues 941 to 1008; numbered along this chain, P39880 (parent)
chain: QEVDTIELTRQVKEKLAKNGICQRIFGEKVLGLSQGSVSDMLSRPKPWSKLTQKGREPFIRMQLWLNG

Variants of: B1
Experiment: abundance fitness (aPCA) (normalised: wild type 0, dead -1); higher = more abundant; growth selection in yeast, the domain comes from the species named
Conditions: Homo sapiens

Abundance fitness: each site, then its substitutions
G36: E 0.107 | D 0.028 | A 0.067 | N -0.014 | P -0.055 | C -0.02 | S -0.02 | L -0.025 | K -0.026 | Q 0.039 | R 0.033 | T 0.003 | I -0.078 | V -0.084 | M -0.058 | F -0.026
R44: G -0.118 | D 0.12 | I -0.189 | F -0.041 | K 0.098 | Q -0.241 | V -0.175 | A 0 | P -0.314 | N 0.054 | H -0.125 | C -0.007 | E -0.176 | Y -0.029
L42: Y -0.481 | D -0.393 | A -0.324 | W -0.134 | F -0.158 | R -0.224 | E -0.281 | G -0.275 | M -0.215 | T -0.424 | K -0.04 | V -0.264 | S -0.236 | Q -0.376 | I -0.171 | P -0.117 | N -0.405 | H -0.184
S49: K 0.029 | C -0.237 | V -0.177 | Q -0.169 | W -0.198 | H 0.025 | E -0.151 | Y -0.255 | R -0.011 | M -0.346 | P -0.231 | D -0.241 | T -0.131 | G -0.133 | A -0.072 | F -0.19 | I -0.43
K46: P 0.112 | S 0.009 | N -0.461 | R -0.099 | Y -0.059 | L -0.07 | Q -0.041 | T -0.205 | A -0.075 | V -0.112 | G -0.315 | I -0.184 | M -0.15 | E -0.013 | W -0.285 | F -0.227 | C -0.369
S37: F -0.014 | G -0.123 | I -0.076 | N -0.033 | E 0.052 | P -0.189 | Y -0.173 | V -0.039 | M -0.126 | T -0.104 | C 0.066 | A 0.118 | W -0.108 | Q 0.111 | D 0.251 | R -0.099
G32: S -0.195 | V -0.645 | W -0.377 | Y -0.415 | T -0.29
L51: I -0.113 | Y -0.474 | V -0.394 | G -1.04 | M -0.125 | P -1.07 | Q -0.969 | T -0.745 | R -0.93 | E -0.929 | C -0.439 | W -0.08 | A -0.723 | S -0.92
S39: V -0.073 | A 0.005 | G 0.019 | M 0.01 | W -0.28 | D -0.04 | I 0.037 | F -0.156 | K 0.039 | E 0.031 | N 0.029 | Q -0.007 | T 0.003 | P -0.126 | Y -0.094 | R 0.007
S43: R -0.125 | L -0.139 | F -0.373 | G -0.251 | K -0.028 | M 0.079 | E 0.014 | V -0.064 | P -0.304 | I -0.187 | W -0.407 | A 0.007 | Y -0.174 | H 0.049 | N 0.066 | Q 0.029 | T -0.01 | C -0.153
S34: C -0.09 | V -0.137 | D -0.046 | R 0.02 | K 0.017 | Y -0.108 | A -0.01 | H -0.139 | G -0.132 | P 0.101 | L -0.113 | W -0.059 | Q -0.125 | T -0.196 | F 0.008 | M -0.017 | E -0.004
T52: F -0.187 | C -0.111 | K -0.109 | M -0.157 | E -0.343 | I -0.009 | G -0.216 | H -0.394 | L -0.018 | P -0.343 | A -0.033 | N -0.009
M41: K -0.089 | N -0.275 | Y -0.011 | S -0.263 | C 0.009 | E -0.335 | Q -0.171 | W 0.022 | F 0.003 | G -0.239 | A 0.023 | L 0.027 | T -0.107 | D -0.194 | V -0.007 | H -0.291 | I -0.016 | P -0.289
P45: E -0.526 | L -0.202 | H -0.124 | N -0.227 | V -0.139 | T -0.224 | M -0.269 | R -0.184 | Q -0.461 | K -0.161 | G -0.309 | D -0.456 | C -0.123 | S -0.063 | W -0.108 | F -0.161 | A -0.233 | I -0.147 | Y -0.282
V38: L -0.026 | S -0.086 | C -0.096 | F 0.048 | N -0.331 | M -0.147 | Y 0.027 | I -0.022 | D -0.188 | K -0.161 | R -0.22 | G -0.263 | Q -0.273 | A -0.215 | W 0.063 | E -0.282 | H -0.308 | T 0.164 | P -0.364
P47: L -0.029 | Y -0.25 | S -0.086 | N -0.371 | C -0.086 | K -0.029 | W 0.056 | F -0.012 | A -0.084 | V -0.079 | M -0.12 | I -0.286 | R -0.134 | Q -0.068 | G -0.123 | D -0.158 | E -0.067 | H -0.133
W48: E -0.774 | V -0.672 | L -0.398 | F -0.311 | H -1.11 | D -1.08 | R -0.729 | M -0.65 | S -0.817 | P -0.999 | I -1 | Q -0.867 | T -1.1 | N -1.46 | A -0.904 | Y -0.78 | G -0.919
Q35: G -0.003 | E 0.124 | S 0.034 | T 0.01 | K -0.016 | D 0.066 | W 0.064 | L -0.003 | M -0.033 | A 0.039 | N -0.353 | Y 0.015 | F 0.044 | P 0.121 | H -0.024 | V 0 | I -0.116
K50: L -0.104 | S -0.04 | A -0.098 | Y -0.138 | H -0.184 | D 0.041 | E 0.022 | N -0.221 | F -0.141 | Q 0.028 | G -0.194 | M -0.012 | V -0.066 | W -0.247 | T -0.059 | C -0.07
D40: H -0.118 | A -0.158 | T -0.121 | V -0.339 | N -0.133 | E 0.044 | F -0.251 | P -0.102 | S -0.127 | K -0.352 | Y -0.212 | I -0.349 | W -0.155 | C -0.209 | R -0.514
L33: Q -0.232 | K -0.092 | T -0.06 | M -0.045 | H -0.174 | R -0.213 | A -0.079 | P -0.49 | V 0.025 | I 0.144 | E -0.262 | Y -0.229 | G -0.219 | W -0.115 | F -0.134
